{"source": "paper PMC1762419", "molecular_target": "endogenous Maf1 (human (endogenous in HeLa)) (UniProt Q9H063)", "sequence (Q9H063 whole entry)": "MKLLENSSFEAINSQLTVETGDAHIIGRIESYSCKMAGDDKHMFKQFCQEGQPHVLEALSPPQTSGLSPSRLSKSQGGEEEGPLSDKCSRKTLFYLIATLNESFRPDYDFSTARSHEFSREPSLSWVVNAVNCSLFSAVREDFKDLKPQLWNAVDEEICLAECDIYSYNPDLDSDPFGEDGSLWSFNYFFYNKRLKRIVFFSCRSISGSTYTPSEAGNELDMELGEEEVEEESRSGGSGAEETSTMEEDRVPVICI", "assay": "co-IP; HeLa (cell line 9-8) whole cell extract, immunoprecipitation with anti-Maf1 or anti-GAPDH antibodies; immunoblot with anti-RPC1, anti-Brf1, anti-Maf1"}
{"substance": "RPC1, the largest subunit of pol III (endogenous, HeLa) (from UniProt O14802 1-1390) (natural protein)", "values": [{"measurement": "percent of RPC1 co-immunoprecipitated", "value": 6, "unit": "%"}]}
